Measured values published in patent US8445240B2, “Termite enzymes and uses thereof for in vitro conversion of lignin-containing materials to fermentable products” (University of Florida Research Foundation, Inc., priority 2009, dated 2013).
Entries after “also recorded” stand apart in the source; their conditions may differ. Blank lines part the entries; values can stand above or below the molecule they belong to.

Experiments:
[1] = system: R. flavipes worker gut esterases; test: Gut esterase activity toward naphthyl esters, native PAGE and colorimetric microplate assays; assay type: biochemical, Reticulitermes flavipes; conditions: foregut/salivary gland, midgut, hindgut
Description: Dissections, protein preparation, centrifugation protocols, and protein assays: All manipulations were performed on ice. For tissue localization studies, 25 termite worker guts were removed and dissected into the three regions of foregut/salivary gland, midgut and hindgut. Each gut region preparation was homogenized using a Tenbroeck glass homogenizer in potassium phosphate (0.1M, pH 7.6), and then centrifuged for 15 min at 14,000×g and 4° C. The supernatant was saved for assays and the pellet discarded.
Gut esterase activity toward naphthyl esters with varying carbon chain lengths: Activities toward different naphthyl ester substrates were investigated in different regions of the termite gut using native PAGE, as above, the results being shown in FIGS. 4 and 5. […].
. Differences in activity between α-naphthyl butyrate and acetate were not as evident on native PAGE as in activity assays. Thus, the majority/greatest diversity of gut esterase activity in R. flavipes is located in the midgut, and that activity is greatest toward the 3-carbon ester naphthyl propionate. […]

[2] = system: recombinant RfBGluc-1; test: Inhibition of recombinant RfBGluc-1; assay type: biochemical, Reticulitermes flavipes; conditions: 25° C., sodium acetate 0.1M pH 7, 2 mM p-nitrophenyl-B-D-glucopyranoside
Description: Assays were conducted at 25° C. in sodium acetate buffer (0.1M, pH 7) using 2 mM p-nitrophenyl-B-D-glucopyranoside as the substrate.

[3] = system: RfLac6; test: Recombinant laccase Lac6 inhibition and enhancement, 2,6-DMP oxidation; assay type: biochemical, Reticulitermes flavipes; conditions: 1 mM 2,6-DMP, pH 7.5
[4] = system: Cell-1
Description: Thermal stability tests were conducted using 1.5% CMC in 100 mM sodium phosphate at the optimal pH of 7. Temperature-cofactor studies were performed using 1.5% CMC dissolved in 100 mM sodium phosphate (pH 7) alone, plus 4 mM EDTA (final concentration), or plus 10 mM calcium chloride (final concentration). Pre-incubations took place for 0-5 days at 25° C. or 0-60 min at 60° C. or 70° C.; reactions were terminated by the combination of adding stop solution and boiling for 10 min, and then assays were read at 25° C.
Calcium as a cofactor in β-1,4-endoglucanase Cell-1 hydrolytic activity and temperature stability: The effects of calcium on recombinant Cell-1 activity were investigated using calcium chloride as a calcium source and EDTA as a potential calcium chelator.

[5] = substrate: COc1cc(/C=C/C(=O)O)cc(OC)c1O; test: purified protein, by the assay type; conditions: other: RfLacA
[6] = substrate: COc1cccc(OC)c1O; test: purified protein, by the assay type; conditions: other: RfLacA; substrate concentration providing ½ maximal activity
[7] = substrate: Oc1ccccc1O; test: purified protein, by the assay type; conditions: other: RfLacA
[8] = Glucose release from pine sawdust by recombinant enzymes and mixtures; assay type: biochemical; conditions: 2% w/v, 18 hrs, 37° C., pH 7
Description: All reactions were performed in 0.1 M sodium acetate buffer containing 10 mM calcium chloride (pH 7). The two feedstock substrates were pine sawdust (=lignin+cellulose+hemicellulose) and beechwood xylan (=lignin+hemicellulose). Feedstocks were tested at 2% w/v (10 mg in 0.5 mL buffer). Reactions were run for 18 hrs at 37° C. with shaking at 220 rpm in vented 1.5 mL plastic tubes.
Protein volumes used per assay were 10 μL of each of the Cell-1, β-glucosidase, and Laccase 6 recombinant protein preparations. These loading volumes provided 8.5, 7.9 and 2.0 μg of each protein, respectively, per reaction. The storage buffer for Cell-1 and β-glucosidase was 0.1 M sodium acetate, 0.15 M sodium chloride, and 0.5 M calcium chloride (pH 5.8). The storage buffer for Laccase 6 was 0.1M boric acid, phosphoric acid, and acetic acid (pH 7.0).
Reactions were stopped after 18 hours by the addition of 10 μL of 0.2 Methylene-diamine tetra-acetic acid and centrifuged for 5 min at 16,000×g. Glucose detection was performed in triplicate on 125 μL aliquots of each reaction supernatant. The entire experiment was replicated three times. Glucose release was measured using the Autokit Glucose reagent kit (Wako Chemical, Richmond, Va.) at a volume of 125 μL per determination. Glucose was quantified based on absorbance at 505 nm relative to glucose standard curves. Standard curves were prepared in eight serial dilutions downward from 0.6 mM in sodium acetate-calcium chloride reaction buffer.

[9] = substrate: OC[C@H]1O[C@@H](O[C@H]2[C@H](O)[C@@H](CO)OC(O)[C@@H]2O)[C@H](O)[C@@H](O)[C@@H]1O; test: Activity of recombinant RfBGluc-1 towards natural substrates, endpoint glucose detection assay; assay type: biochemical, Reticulitermes flavipes; conditions: other: natural substrates; endpoint at 505 nm, glucose detection reagent; mean ± standard error
Description: (§2) Natural carbohydrate substrates (Table 2) were tested in endpoint assays in which color development was enabled using 439-90901 glucose-mutarose detection reagent (Wako Chemical; Richmond, Va.). Assays were conducted in 125 μL for 5 min at room temperature as described above and stopped with the addition of 125 μL glucose detection reagent. After 1 min, the absorbance was read at 505 nm.

[10] = substrate: OCc1ccccc1O[C@@H]1O[C@H](CO)[C@@H](O)[C@H](O)[C@H]1O; test: as above; assay type: biochemical, Reticulitermes flavipes; conditions: other: natural substrates; endpoint at 505 nm, glucose detection reagent; mean ± standard error
Description: as §2

[11] = substrate: O=[N+]([O-])c1ccc(O[C@@H]2O[C@H](CO)[C@@H](O[C@@H]3O[C@H](CO)[C@@H](O[C@@H]4O[C@H](CO)[C@@H](O)[C@H](O)[C@H]4O)[C@H](O)[C@H]3O)[C@H](O)[C@H]2O)cc1; test: Activity of recombinant RfBGluc-1 towards synthetic nitrophenol substrates, kinetic microplate assay; assay type: biochemical, Reticulitermes flavipes; conditions: other: synthetic NP substrates; read kinetically at 420 nm; mean ± standard error, 3-5 replicates; pH 6.0
Description: (§1) All initial characterization assays took place in 0.1 M sodium acetate buffer (pH 6) using 2 μL of recombinant enzyme preparation (=1.58 μg protein per assay) in a total reaction volume of 250 μL. Synthetic p-nitrophenol substrates (Table 1) were tested in direct kinetic assays using a microplate reader. Reactions were initiated by adding 248 μL assay buffer to 2 μL protein. Assays were read at 420 nm every 20 sec for 5 min to yield mean velocity data in mOD/min. Specific activity was determined with the p-nitrophenol extinction coefficient of 0.6605 mM^−1 cm^−1. All results were averaged from three independent replicates, each conducted in triplicate.

[12] = substrate: O=[N+]([O-])c1ccc(O[C@@H]2O[C@H](CO)[C@@H](O[C@@H]3O[C@H](CO)[C@@H](O[C@@H]4O[C@H](CO)[C@@H](O[C@@H]5O[C@H](CO)[C@@H](O)[C@H](O)[C@H]5O)[C@H](O)[C@H]4O)[C@H](O)[C@H]3O)[C@H](O)[C@H]2O)cc1; test: as above; assay type: biochemical, Reticulitermes flavipes; conditions: other: synthetic NP substrates; read kinetically at 420 nm; mean ± standard error, 3-5 replicates; pH 6.0
Description: as §1

[13] = substrate: O=[N+]([O-])c1ccc(O[C@@H]2O[C@H](CO)[C@@H](O)[C@H](O)[C@H]2O)cc1; test: as above; assay type: biochemical, Reticulitermes flavipes; conditions: other: synthetic NP substrates; read kinetically at 420 nm; mean ± standard error, 3-5 replicates; pH 6.0
Description: as §1

[14] = substrate: O=[N+]([O-])c1ccccc1O[C@@H]1OC[C@@H](O)[C@H](O)[C@H]1O; test: as above; assay type: biochemical, Reticulitermes flavipes; conditions: other: synthetic NP substrates; read kinetically at 420 nm; mean ± standard error, 3-5 replicates; pH 6.0
Description: as §1

[15] = substrate: O=[N+]([O-])c1ccccc1O[C@@H]1O[C@H](CO)[C@@H](O)[C@H](O)[C@H]1O; test: as above; assay type: biochemical, Reticulitermes flavipes; conditions: other: synthetic NP substrates; read kinetically at 420 nm; mean ± standard error, 3-5 replicates; pH 6.0
Description: as §1

[16] = substrate: O=[N+]([O-])c1ccc(O[C@@H]2O[C@H](CO)[C@@H](O[C@@H]3O[C@H](CO)[C@@H](O)[C@H](O)[C@H]3O)[C@H](O)[C@H]2O)cc1; test: as above; assay type: biochemical, Reticulitermes flavipes; conditions: other: synthetic NP substrates; read kinetically at 420 nm; mean ± standard error, 3-5 replicates; pH 6.0
Description: as §1

[17] = substrate: C[C@H]1O[C@@H](Oc2ccc([N+](=O)[O-])cc2)[C@H](O)[C@@H](O)[C@H]1O; test: as above; assay type: biochemical, Reticulitermes flavipes; conditions: other: synthetic NP substrates; read kinetically at 420 nm; mean ± standard error, 3-5 replicates; pH 6.0
Description: as §1

[18] = substrate concentration providing ½ maximal activity

gut esterase activity toward the substrate [1]: lowest esterase staining activity
Molecule: CCCCCCCC(=O)Oc1cccc2ccccc12 [α-naphthyl caprylate]

Molecule: fluoromethyl cellobiose [fluoromethyl cellobiose (FMCB)]
inhibition of recombinant RfBGluc-1 [2]: concentration-dependent inhibition

gut esterase activity toward the substrate [1]: significantly greatest activity
Molecule: CCC(=O)Oc1cccc2ccccc12 [α-naphthyl propionate]

concentration up to which RfLac6 activity is enhanced, inhibitory above [3]: ≤ 10 mM
Molecule: O=C(O)CS [TGA, thioglycolic acid]

Molecule: OC[C@@H]1[C@@H](O[C@@H]2O[C@H](CO)[C@@H](O)[C@H](O)[C@H]2O)[C@H](O)[C@@H](O)c2nccn21 [cellobioimidazole (CBI), cellobioimidazole]
inhibition of recombinant RfBGluc-1 [2]: concentration-dependent inhibition

Molecule: O=C(O)CN(CCN(CC(=O)O)CC(=O)O)CC(=O)O [EDTA, ethylenediaminetetraacetate]
effect on Cell-1 CMC endoglucanase activity ([4]; incubations over a 5-day period at about 25° C.): slightly inhibitory
effect on Cell-1 temperature stability ([4]; pre-incubation at 60° C. and 70° C., 0-60 min): rapidly reduced temperature stability; also recorded: reduces temperature stability
effect on RfLac6 activity ([3]; at concentrations as low as 0.01 mM): completely inhibited

B1: RfLacA (Reticulitermes flavipes) (protein)
chain: TSVLLNSYLQPNDDIDRNTYLLNAKSNNCARICNGTEAPKICYYQWTIENYVTLSEACDNCPLNVTACYNAQCITADGYERSILSVNRKLPGPSIEVCLRDRVIVDITNNMAGRTTSIHWHGVFQKGSQYMDGVPMVTQCTIHEGDTFRYDFIANNEGTHFWHSHDGLQKLDGVTGNLVVRVPKNFDPNGQLYDFDLPEHKIFISDWLHLSADDHFPGLRATNPGQDANSFLINGRGRTLIGTQSTNTPYAQINVQWGRRYRLRIVGSLCTVCPTQLTIDGHKITVIATDGNSVAPARVDSLIIYSGERYDVVLEATNTEGSYWIHLKGLATCVGSRVYQLGVLQYENTTTNKLHALTPDPGYDGFPQPASYRVLNPENASCSIGSTGLCVTQLANSDPVPRDILTQLPDINYLLQFGFETFDSRSFFKAYDRYFVSPFLELLSSTVNNISFVSPPSPLLSQRGDVPDDILCPTGADGLPQCPGGNSYCTCVHVIKIKLGALVQIILSDQSPKSDLNHPFHIHGHAFYVLGMGQYAAGQTAQDLLNSLKSNVSSVSPAPVLKDTVAVPSGGYAIIKFRPKNPGYWFLHCHFLYHVATGMSVVLQVGETSDYPPTPDGFPKCGSFTPPVNTN
Vmax [5]: 0.247 µM/min
Km [5, 18]: 5022 µM
Km [6]: 34888 µM
Vmax [6]: 0.26 µM/min
Vmax [7]: 15.4 µM/min
Km [7, 18]: 17527 µM

glucose release from pine sawdust (in words) [8]: No glucose release was detectable
B2: β-glucosidase: recombinant R. flavipes β-glucosidase, amino acid sequence SEQ ID NO.: 6 (protein)
chain: MRLQTVCFVIFVTAVFGADVDNETLFTFPEDFKLGAATASYQIEGGWNADGKGVNIWDKLTHERSQLVVDKSSGDVADDSYHLYKEDVKLLKNMGAQLYRFSISWARILPEGHDNKVNQAGIEYYNKLIDELLDNGIEPMVTMYHWDLPQTLQDLGGWPNRELAKYSENYARVLFQNFGDRVKLWLTFNEPLTFMDAYASETGMAPSIDTPGIGDYLAAHTVILAHANIYRMYEREFKEEQKGKVGIALNIHWCEPVTNSTKDVEACERYQQFNLGIYAHPIFSVEGDYPSVLKARVDANSVTEGYTTSRLPKFTTEEVDFIRGTHDFLGLNFYTAVTGADGVEGEPPSRYRDMGAITSQDPDWPQSASSWLRVVPWGFRKELNWIANEYGNPPIYITENGFSDYGGLNDTDRVLYYTEHLKEMLKANHIDEVNVVGYTTWRPVDNFEWLRGYTERFGIHEVNFNDPSRPRVPKESAKVLTEIFNTRRIPERFLD
modifications: Reticulitermes flavipes; amino acid sequence beta-glucosidase “contig 771”

B3: recombinant RfBGluc-1 β-glucosidase (Reticulitermes flavipes) (protein)
chain: ADVDNETLFTFPEDFKLGAATASYQIEGGWNADGKGVNIWDTLTHERSQLVVDKSSGDVADDSYHLYKEDVKLLKNMGAQLYRFSISWARILPEGHDNKVNQAGIEYYNKLIDELLDNGIEPMVTMYHWDLPQTLQDLGGWPNRELAKYSENYARVLFQNFGDRVKLWLTFNEPLTFMDAYASETGMAPSIDTPGIGDYLAAHTVILAHANIYRMYEREFKEEQKGKVGIALNIHWCEPVTNSTKDVEACERYQQFNLGIYAHPIFSVEGDYPSVLKARVDANSVTEGYTTSRLPKFTTEEVDFIRGTHDFLGLNFYTAVTGADGVEGEPPSRYRDMGAITSQDPDWPESASSWLRVVPWGFRKELNWIANEYGNPPIYITENGFSDYGGLNDTDRVLYYTEHLKEMLKAIHIDEVNVVGYTAWSLVDNFEWLRGYTERFGIHEVNFNDPSRPRVPKESAKVLTEIFNTRRIPERFLD
Km [9]: 630 ± 20 µM
Vmax [9]: 218 µmol/min/mg
Km [10]: 34300 ± 14750 µM
Vmax [10]: 278 µmol/min/mg
Km [11]: 1630 ± 500 µM
Vmax [11]: 22.6 µmol/min/mg
Km [12]: 590 ± 10 µM
Vmax [12]: 16.6 µmol/min/mg
Km [13]: 1660 ± 70 µM
Vmax [13]: 22.9 µmol/min/mg
Km [14]: 7570 ± 1170 µM
Vmax [14]: 8.77 µmol/min/mg
Km [15]: 1580 ± 190 µM
Vmax [15]: 4.2 µmol/min/mg
Km [16]: 1560 ± 40 µM
Vmax [16]: 13.8 µmol/min/mg
Km [17]: 900 ± 70 µM
Vmax [17]: 12.6 µmol/min/mg
